Source: patent US6593098 (FOX CHASE CANCER CENTER, dated 2003)

Assays:
CENP-E = target: T1, CENP-E (human, UniProt Q02224 1-2698, limits assumed); experiment: specificity test, method not named in the sentence (probably yeast two-hybrid)
T1 construct: Endogenous Hela protein in the immunoprecipitations; also called CENP-E kinetochore motor; endogenous CENP-E

human BUB1A kinase = target: T2, human BUB1A kinase (human, UniProt O60566 1-1050, hyperphosphorylated in mitotically arrested cells (P-ser and P-thr the major phosphoamino acids; positions not given)); experiment: as above
T2 construct: Endogenous huBUB1A immunoprecipitated or blotted from Hela lysates; also called huBUB1A; hUBUB1A
T2 sequence (O60566 whole entry R349Q/E1018K): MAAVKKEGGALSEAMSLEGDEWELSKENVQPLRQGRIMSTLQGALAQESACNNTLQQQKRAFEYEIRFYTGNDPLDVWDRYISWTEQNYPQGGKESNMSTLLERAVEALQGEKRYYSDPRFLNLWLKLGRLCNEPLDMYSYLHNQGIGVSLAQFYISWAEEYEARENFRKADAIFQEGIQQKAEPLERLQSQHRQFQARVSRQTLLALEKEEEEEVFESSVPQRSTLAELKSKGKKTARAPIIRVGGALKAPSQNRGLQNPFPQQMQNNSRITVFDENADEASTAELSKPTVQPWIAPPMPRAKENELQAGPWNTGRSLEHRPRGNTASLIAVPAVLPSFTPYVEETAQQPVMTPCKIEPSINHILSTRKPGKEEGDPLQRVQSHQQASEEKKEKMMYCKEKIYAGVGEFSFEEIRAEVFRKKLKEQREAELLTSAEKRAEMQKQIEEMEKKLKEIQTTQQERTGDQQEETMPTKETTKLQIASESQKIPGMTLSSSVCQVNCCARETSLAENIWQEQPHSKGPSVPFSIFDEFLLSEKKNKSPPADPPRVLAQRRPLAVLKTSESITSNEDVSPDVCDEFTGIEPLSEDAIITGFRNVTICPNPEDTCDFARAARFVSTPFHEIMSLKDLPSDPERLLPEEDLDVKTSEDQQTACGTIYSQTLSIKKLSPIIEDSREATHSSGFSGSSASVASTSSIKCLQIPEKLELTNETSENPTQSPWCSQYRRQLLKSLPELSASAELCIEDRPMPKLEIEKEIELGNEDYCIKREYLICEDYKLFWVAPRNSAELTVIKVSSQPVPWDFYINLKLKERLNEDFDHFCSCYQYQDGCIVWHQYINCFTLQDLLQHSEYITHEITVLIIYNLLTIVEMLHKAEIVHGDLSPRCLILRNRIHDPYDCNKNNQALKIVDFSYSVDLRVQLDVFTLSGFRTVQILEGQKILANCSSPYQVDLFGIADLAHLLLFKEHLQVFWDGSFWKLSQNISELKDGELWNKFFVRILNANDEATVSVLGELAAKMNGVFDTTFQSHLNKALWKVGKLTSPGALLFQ

T1 sequence (Q02224 1-2698 limits assumed): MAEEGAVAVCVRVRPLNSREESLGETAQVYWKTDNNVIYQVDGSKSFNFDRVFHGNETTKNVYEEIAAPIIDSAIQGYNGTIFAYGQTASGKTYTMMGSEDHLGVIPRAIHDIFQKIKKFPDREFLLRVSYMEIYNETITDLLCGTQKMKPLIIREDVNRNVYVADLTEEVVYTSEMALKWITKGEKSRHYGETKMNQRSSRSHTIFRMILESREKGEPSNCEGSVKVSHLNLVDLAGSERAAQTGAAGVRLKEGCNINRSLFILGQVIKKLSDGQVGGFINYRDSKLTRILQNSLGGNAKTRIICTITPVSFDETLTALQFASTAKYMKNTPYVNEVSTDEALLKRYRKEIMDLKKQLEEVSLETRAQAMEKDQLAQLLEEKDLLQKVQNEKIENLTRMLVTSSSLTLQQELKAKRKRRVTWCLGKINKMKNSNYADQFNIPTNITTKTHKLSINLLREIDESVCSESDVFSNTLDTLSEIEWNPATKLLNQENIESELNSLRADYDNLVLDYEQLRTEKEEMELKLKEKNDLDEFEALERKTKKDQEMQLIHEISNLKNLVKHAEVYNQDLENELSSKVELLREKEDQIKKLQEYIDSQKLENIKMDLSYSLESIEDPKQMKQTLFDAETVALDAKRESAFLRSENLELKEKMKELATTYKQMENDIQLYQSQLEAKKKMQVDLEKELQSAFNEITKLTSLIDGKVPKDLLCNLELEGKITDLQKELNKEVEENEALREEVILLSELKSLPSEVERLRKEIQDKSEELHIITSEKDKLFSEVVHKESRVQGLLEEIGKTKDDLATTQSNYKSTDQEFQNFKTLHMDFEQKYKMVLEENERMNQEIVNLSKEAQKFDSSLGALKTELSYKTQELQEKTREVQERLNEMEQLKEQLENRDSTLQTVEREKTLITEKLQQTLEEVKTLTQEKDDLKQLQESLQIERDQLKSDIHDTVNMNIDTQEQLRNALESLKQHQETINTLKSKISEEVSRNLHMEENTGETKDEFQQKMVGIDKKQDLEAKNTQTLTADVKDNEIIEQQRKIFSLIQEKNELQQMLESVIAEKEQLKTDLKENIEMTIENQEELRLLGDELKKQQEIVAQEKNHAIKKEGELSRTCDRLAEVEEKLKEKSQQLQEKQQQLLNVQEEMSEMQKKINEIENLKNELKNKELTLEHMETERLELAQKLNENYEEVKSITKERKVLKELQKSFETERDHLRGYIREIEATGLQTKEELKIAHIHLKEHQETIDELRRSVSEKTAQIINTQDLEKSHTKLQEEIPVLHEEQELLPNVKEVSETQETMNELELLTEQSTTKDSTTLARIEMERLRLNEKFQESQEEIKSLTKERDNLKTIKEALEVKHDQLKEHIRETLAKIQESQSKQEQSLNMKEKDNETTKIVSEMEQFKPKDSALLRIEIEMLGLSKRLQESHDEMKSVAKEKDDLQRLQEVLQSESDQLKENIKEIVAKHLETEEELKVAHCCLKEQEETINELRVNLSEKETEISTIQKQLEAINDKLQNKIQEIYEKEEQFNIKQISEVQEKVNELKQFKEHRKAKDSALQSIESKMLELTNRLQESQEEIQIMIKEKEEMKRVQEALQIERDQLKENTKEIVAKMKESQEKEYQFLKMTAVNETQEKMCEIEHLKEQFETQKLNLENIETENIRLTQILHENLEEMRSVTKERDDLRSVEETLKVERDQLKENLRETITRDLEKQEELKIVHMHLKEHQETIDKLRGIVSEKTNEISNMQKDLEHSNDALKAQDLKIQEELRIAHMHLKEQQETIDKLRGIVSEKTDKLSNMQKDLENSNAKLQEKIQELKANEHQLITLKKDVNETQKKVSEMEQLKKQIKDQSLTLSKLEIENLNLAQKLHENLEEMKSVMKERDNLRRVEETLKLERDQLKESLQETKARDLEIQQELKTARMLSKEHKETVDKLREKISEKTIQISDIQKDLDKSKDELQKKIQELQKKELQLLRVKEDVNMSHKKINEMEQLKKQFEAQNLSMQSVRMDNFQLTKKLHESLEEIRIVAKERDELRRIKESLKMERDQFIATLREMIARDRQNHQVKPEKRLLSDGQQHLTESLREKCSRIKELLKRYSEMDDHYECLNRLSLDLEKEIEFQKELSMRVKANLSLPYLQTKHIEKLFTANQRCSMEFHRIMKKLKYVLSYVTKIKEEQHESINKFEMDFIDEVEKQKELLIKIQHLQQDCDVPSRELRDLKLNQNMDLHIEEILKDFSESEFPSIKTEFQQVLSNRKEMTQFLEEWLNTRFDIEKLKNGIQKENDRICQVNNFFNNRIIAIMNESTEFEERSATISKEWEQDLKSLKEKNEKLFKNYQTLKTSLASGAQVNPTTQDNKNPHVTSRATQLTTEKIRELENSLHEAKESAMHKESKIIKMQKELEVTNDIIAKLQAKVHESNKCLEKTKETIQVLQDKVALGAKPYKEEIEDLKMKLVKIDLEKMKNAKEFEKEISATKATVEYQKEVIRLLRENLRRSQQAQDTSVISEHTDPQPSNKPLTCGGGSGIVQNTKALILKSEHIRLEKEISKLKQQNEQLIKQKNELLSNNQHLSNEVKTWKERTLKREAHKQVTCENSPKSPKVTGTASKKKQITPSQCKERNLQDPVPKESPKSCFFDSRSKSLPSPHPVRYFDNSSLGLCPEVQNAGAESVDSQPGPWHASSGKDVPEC

| binding result (CENP-E) | binding result (human BUB1A kinase) | Binder |
| --- | --- | --- |
| no binding | – | human BUB1B kinase (enzyme, Endogenous protein in the immunoprecipitations; also called huBUB1B) MDTPENVLQMLEAHMQSYKGNDPLGEWERYIQWVEENFPENKEYLITLLEHLMKEFLDKKKYHNDPRFISYCLKFAEYNSDLHQFFEFLYNHGIGTLSSPLYIAWAGHLEAQGELQHASAVLQRGIQNQAEPREFLQQQYRLFQTRLTETHLPAQARTSEPLHNVQVLNQMITSKSNPGNNMACISKNQGSELSGVISSACDKESNMERRVITISKSEYSVHSSLASKVDVEQVVMYCKEKLIRGESEFSFEELRAQKYNQRRKHEQWVNEDRHYMKRKEANAFEEQLLKQKMDELHKKLHQVVETSHEDLPASQERSEVNPARMGPSVGSQQELRAPCLPVTYQQTPVNMEKNPREAPPVVPPLANAISAALVSPATSQSIAPPVPLKAQTVTDSMFAVASKDAGCVNKSTHEFKPQSGAEIKEGCETHKVANTSSFHTTPNTSLGMVQATPSKVQPSPTVHTKEALGFIMNMFQAPTLPDISDDKDEWQSLDQNEDAFEAQFQKNVRSSGAWGVNKIISSLSSAFHVFEDGNKENYGLPQPKNKPTGARTFGERSVSRLPSKPKEEVPHAEEFLDDSTVWGIRCNKTLAPSPKSPGDFTSAAQLASTPFHKLPVESVHILEDKENVVAKQCTQATLDSCEENMVVPSRDGKFSPIQEKSPKQALSSHMYSASLLRLSQPAAGGVLTCEAELGVEACRLTDTDAAIAEDPPGSAAIAEDPPDAIAGLQAEWMQMSSLGTVDAPNFIVGNPWDDKLIFKLLSGLSKPVSSYPNTFEWQCKLPAIKPKTEFQLGSKLVYVHHLLGEGAFAQVYEATQGDLNDAKNKQKFVLKVQKPANPWEFYIGTQLMERLKPSMQHMFMKFYSAHLFQNGSVLVGELYSYGTLLNAINLYKNTPEKVMPQGLVISFAMRMLYMIEQVHDCEIIHGDIKPDNFILGNGFLEQDDEDDLSAGLALIDLGQSIDMKLFPKGTIFTAKCETSGFQCVEMLSNKPWNYQIDYFGVAATVYCMLFGTYMKVKNEGGECKPEGLFRRLPHLDMWNEFFHVMLNIPDCHHLPSLDLLRQKLKKVFQQHYTNKIRALRNRLIVLLLECKRSRK |
| – | no binding | CENP-F (other, UniProt P49454 2542-3114, looked up) SQVEGEHQLWKEQNLELRNLTVELEQKIQVLQSKNASLQDTLEVLQSSYKNLENELELTKMDKMSFVEKVNKMTAKETELQREMHEMAQKTAELQEELSGEKNRLAGELQLLLEEIKSSKDQLKELTLENSELKKSLDCMHKDQVEKEGKVREEIAEYQLRLHEAEKKHQALLLDTNKQYEVEIQTYREKLTSKEECLSSQKLEIDLLKSSKEELNNSLKATTQILEELKKTKMDNLKYVNQLKKENERAQGKMKLLIKSCKQLEEEKEILQKELSQLQAAQEKQKTGTVMDTKVDELTTEIKELKETLEEKTKEADEYLDKYCSLLISHEKLEKAKEMLETQVAHLCSQQSKQDSRGSPLLGPVVPGPSPIPSVTEKRLSSGQNKASGKRQRSSGIWENGRGPTPATPESFSKKSKKAVMSGIHPAEDTEGTEFEPEGLPEVVKKGFADIPTGKTSPYILRRTTMATRTSPRLAAQKLALSPLSLGKENLAESSKPTAGGSRSQKVKVAQRSPVDSGTILREPTTKSVPVNNLPERSPTDSPREGLRVKRGRLVPSPKAGLESNGSENCKVQ |
